In IntAct's records for PubMed 18682563:

B1: Inner tegument protein (Human herpesvirus 1 (strain 17) (HHV-1)), P10221 (parent)
chain: MADRGLPSEAPVVTTSPAGPPSDGPMQRLLASLAGLRQPPTPTAETANGADDPAFLATAKLRAAMAAFLLSGTAIAPADARDCWRPLLEHLCALHRAHGLPETALLAENLPGLLVHRLVVALPEAPDQAFREMEVIKDTILAVTGSDTSHALDSAGLRTAAALGPVRVRQCAVEWIDRWQTVTKSCLAMSPRTSIEALGETSLKMAPVPLGQPSANLTTPAYSLLFPAPFVQEGLRFLALVSNRVTLFSAHLQRIDDATLTPLTRALFTLALVDEYLTTPERGAVVPPPLLAQFQHTVREIDPAIMIPPLEANKMVRSREEVRVSTALSRVSPRSACAPPGTLMARVRTDVAVFDPDVPFLSSSALAVFQPAVSSLLQLGEQPSAGAQQRLLALLQQTWTLIQNTNSPSVVINTLIDAGFTPSHCTHYLSALEGFLAAGVPARTPTGHGLGEVQQLFGCIALAGSNVFGLAREYGYYANYVKTFRRVQGASEHTHGRLCEAVGLSGGVLSQTLARIMGPAVPTEHLASLRRALVGEFETAERRFSSGQPSLLRETALIWIDVYGQTHWDITPTTPATPLSALLPVGQPSHAPSVHLAAATQIRFPALEGIHPNVLADPGFVPYVLALVVGDALRATCSAAYLPRPVEFALRVLAWARDFGLGYLPTVEGHRTKLGALITLLEPAARGGLGPTMQMADNIEQLLRELYVISRGAVEQLRPLVQLQPPPPPEVGTSLLLISMYALAARGVLQDLAERADPLIRQLEDAIVLLRLHMRTLSAFFECRFESDGRRLYAVVGDTPDRLGPWPPEAMGDAVSQYCSMYHDAKRALVASLASLRSVITETTAHLGVCDELAAQVSHEDNVLAVVRREIHGFLSVVSGIHARASKLLSGDQVPGFCFMGQFLARWRRLSACYQAARAAAGPEPVAEFVQELHDTWKGLQTERAVVVAPLVSSADQRAAAIREVMAHAPEDAPPQSPAADRVVLTSRRDLGAWGDYSLGPLGQTTAVPDSVDLSRQGLAVTLSMDWLLMNELLRVTDGVFRASAFRPLAGPESPRDLEVRDAGNSLPAPMPMDAQKPEAYGHGPRQADREGAPHSNTPVEDDEMIPEDTVAPPTDLPLTSYQ
partner: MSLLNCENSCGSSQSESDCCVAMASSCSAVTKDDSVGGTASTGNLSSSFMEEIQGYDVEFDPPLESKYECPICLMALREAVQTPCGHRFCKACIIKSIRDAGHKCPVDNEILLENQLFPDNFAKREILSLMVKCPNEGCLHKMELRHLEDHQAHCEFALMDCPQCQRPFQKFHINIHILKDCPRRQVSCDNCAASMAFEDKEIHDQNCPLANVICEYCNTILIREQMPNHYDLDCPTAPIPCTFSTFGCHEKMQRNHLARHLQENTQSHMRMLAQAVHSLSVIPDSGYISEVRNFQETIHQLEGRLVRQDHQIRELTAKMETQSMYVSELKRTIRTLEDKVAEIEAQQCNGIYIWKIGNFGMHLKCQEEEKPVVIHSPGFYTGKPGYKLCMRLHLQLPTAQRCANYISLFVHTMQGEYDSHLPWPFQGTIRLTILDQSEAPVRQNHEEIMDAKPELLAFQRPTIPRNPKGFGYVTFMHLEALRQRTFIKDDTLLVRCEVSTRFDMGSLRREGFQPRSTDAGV

Variants of: B1
Settings: with traf6_human TRAF6, Q9Y4K3

Row | Variant | effect of a mutation on the interaction
1 | E1101A | decreasing interaction strength
